Results: US20180327752A1 (Stanford University, published 2018)

Columns and labels:
[1] = biological target: c-MET (Homo sapiens) (UniProt P08581); experiment: Flow cytometry surface staining of HAP1 WT cells with the isotype control, SSC against PE
[2] = biological target: FGFR1; experiment: Flow cytometry surface staining of HAP1 WT cells with the isotype control, SSC against FITC
[3] = biological target: T1, AAV2 particles (adeno-associated virus serotype 2 capsid) (adeno-associated virus serotype 2, UniProt P03135 1-735); experiment: cell-based or functional assay
T1 sequence (P03135 whole entry): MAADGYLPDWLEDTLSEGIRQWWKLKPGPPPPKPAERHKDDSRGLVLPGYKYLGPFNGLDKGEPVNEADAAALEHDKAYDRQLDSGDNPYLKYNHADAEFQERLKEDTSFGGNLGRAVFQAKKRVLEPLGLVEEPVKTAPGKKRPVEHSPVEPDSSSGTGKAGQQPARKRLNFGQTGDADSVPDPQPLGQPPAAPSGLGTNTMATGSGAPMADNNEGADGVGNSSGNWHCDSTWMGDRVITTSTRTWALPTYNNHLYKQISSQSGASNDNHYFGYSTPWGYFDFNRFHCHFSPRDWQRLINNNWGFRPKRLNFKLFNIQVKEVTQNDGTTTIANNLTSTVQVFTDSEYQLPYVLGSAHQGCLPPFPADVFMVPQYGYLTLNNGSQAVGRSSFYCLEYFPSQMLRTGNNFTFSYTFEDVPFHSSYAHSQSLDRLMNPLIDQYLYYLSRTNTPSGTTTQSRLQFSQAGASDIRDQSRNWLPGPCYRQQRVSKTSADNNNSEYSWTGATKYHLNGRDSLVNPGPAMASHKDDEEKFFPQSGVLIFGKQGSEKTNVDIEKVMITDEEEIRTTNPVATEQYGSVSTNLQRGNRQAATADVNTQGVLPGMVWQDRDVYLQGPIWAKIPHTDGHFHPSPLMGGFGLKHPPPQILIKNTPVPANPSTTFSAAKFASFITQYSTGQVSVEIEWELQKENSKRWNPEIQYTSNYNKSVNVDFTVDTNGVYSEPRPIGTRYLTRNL

[4] = biological target: T1, AAV2 particles (adeno-associated virus …); experiment: ELISA: plates coated with AAV2 virus-like particles, soluble AAVR (MBP-PKD1-5) detected with anti-MBP-HRP, A450
[5] = biological target: T1, AAV2 particles (adeno-associated virus …); experiment: SPR (BIAcore X), His-tagged soluble AAVR immobilised on CM5 chip, AAV-2 particles as analyte, Langmuir 1:1 fit
[6] = biological target: T1, AAV2 particles (adeno-associated virus …); experiment: SPR (BIAcore X): His-tagged soluble AAVR immobilised at 4 nM ligand concentration, AAV-2 particles as analyte, Langmuir 1:1 fit
[7] = biological target: T1, AAV2 particles (adeno-associated virus …); experiment: SPR (BIAcore X): His-tagged soluble AAVR immobilised at 2 nM ligand concentration, AAV-2 particles as analyte, Langmuir 1:1 fit

isotype (PE row) (antibody) gave a % of cells in the positive gate [1] of 0.68%.

With isotype (FITC row) (antibody) the % of cells in the positive gate [2] was 0.28%.

B1: soluble AAVR (E. coli-expressed recombinant fusion between maltose-binding protein and AAVR PKD domains 1-5) (receptor)
chain: VSAGESVQITLPKNEVQLNAYVLQEPPKGETYTYDWQLITHPRDYSGEMEGKHSQILKLSKLTPGLYEFKVIVEGQNAHGEGYVNVTVKPEPRKNRPPIAIVSPQFQEISLPTTSTVIDGSQSTDDDKIVQYHWEELKGPLREEKISEDTAILKLSKLVPGNYTFSLTVVDSDGATNSTTANLTVNKAVDYPPVANAGPNQVITLPQNSITLFGNQSTDDHGITSYEWSLSPSSKGKVVEMQGVRTPTLQLSAMQEGDYTYQLTVTDTIGQQATAQVTVIVQPENNKPPQADAGPDKELTLPVDSTTLDGSKSSDDQKIISYLWEKTQGPDGVQLENANSSVATVTGLQVGTYVFTLTVKDERNLQSQSSVNVIVKEEINKPPIAKITGNVVITLPTSTAELDGSKSSDDKGIVSYLWTRDEGSPAAGEVLNHSDHHPILFLSNLVEGTYTFHLKVTDAKGESDTDRTTVEVKPDPR
notes: Used in the ELISA on AAV2 VLPs and in the neutralization assay; also called rAAVR1-5; MBP-AAVR PKD 1-5
B1 was tested, and the “IC50 (read off the curve)” value [3] was ~0.02 µM and the “EC50 (read off the curve)” value [4] was ~0.1 µM.

B2: His-tagged soluble AAVR (His-tagged MBP fusion with AAVR PKD domains 1-5) (receptor)
chain: B1 chain
notes: Construct immobilised on the CM5 chip for SPR; also called AAVR (SPR ligand); not shown: His tag
Molecule B2 has a Kd [5] of ~0.15 µM, a Kd [6] of 0.15 µM and a koff [6] of 0.0029 s⁻¹. It also gave a kon [6] of 18000 M⁻¹ s⁻¹, a Kd [7] of 0.14 µM and a koff [7] of 0.0023 s⁻¹. For the same molecule, the kon [7] was 20000 M⁻¹ s⁻¹.
